Assay [1] concerns the target Rpn10/13 proteasome (rpn1-ARR) (S. cerevisiae) (UniProt P38764).
In assay [2] the target is TM (triple mutant) proteasome (rpn1-ARR, rpn10-uim, rpn13-pru) (S. cerevisiae) (UniProt P38764).
For assay [3], the target named is Rpn13 proteasome (rpn1-ARR, rpn10-uim) (S. cerevisiae) (UniProt P38764).
In assay [4] the target is Rpn10 proteasome (rpn1-ARR, rpn13-pru) (S. cerevisiae) (UniProt P38764).
For assay [5], the target named is wild-type proteasome (reconstituted from regulatory particle and core particle) (S. cerevisiae) (UniProt P38764).
Assay [6] addresses Rpn1 proteasome (reconstituted proteasome harboring the rpn10-UIM and rpn13-pru mutations) (S. cerevisiae) (UniProt P38764).
The target in assay [7] is Rpn13 proteasome (reconstituted proteasome harboring the rpn1-ARR and rpn10-UIM mutations) (S. cerevisiae) (UniProt P38764).

Where only a bound is given, the exact number is not on record here.

Take “Ub5(K48)-GFP-35: base protein Ub-GFP-35 with a K48-linked chain of four ubiquitins attached to its ubiquitin domain (from UniProt P0CG63 1-76; P0CG63 1-76)”: the Supplementary Table 4: KM of degradation (Michaelis-Menten analysis of initial rates of loss of GFP fluorescence, 25 nM proteasome, 1 mM ATP, 30 °C) in assay [1] amounted to 0.058 µM; in assay [2] it was 5.28 µM; in assay [3] it was 5.72 µM.

As for “Ub5(K63)-GFP-35: base protein Ub-GFP-35 with a K63-linked chain of four ubiquitins attached to its ubiquitin domain (from UniProt P0CG63 1-76; P0CG63 1-76)”, the Supplementary Table 4: KM of degradation (Michaelis-Menten analysis of initial rates of loss of GFP fluorescence, 25 nM proteasome, 1 mM ATP, 30 °C) is 0.428 µM in assay [4], 2.06 µM in assay [2], 0.333 µM in assay [5] and 0.816 µM in assay [3].

For the substance UBL-GFP-95 (from UniProt P32628 1-80), the initial rate of degradation (GFP fluorescence), single turnover, 5 nM substrate, 25 nM proteasome, 1 mM ATP, 30 °C; against Ub5(K48)-GFP-95 on the same proteasome in assay [6] was found to be 4 fold.

In assay [7], “UBL-GFP-35 (from UniProt P32628 1-80; P00175 1-35)” came in with an initial rate of degradation (GFP fluorescence), single turnover, 5 nM substrate, 25 nM proteasome, 1 mM ATP, 30 °C; against Ub5(K48)-GFP-35 or Ub9(K48)-GFP-35 on the same proteasome of over 4 fold.

As to “Ub9(K48)-GFP-35: base protein Ub-GFP-35 with a K48-linked chain of eight ubiquitins attached to its ubiquitin domain (from UniProt P0CG63 1-76; P0CG63 1-76)”, the Supplementary Table 4: KM of degradation (Michaelis-Menten analysis of initial rates of loss of GFP fluorescence, 25 nM proteasome, 1 mM ATP, 30 °C) was 1.68 µM in assay [2], 0.05 µM in assay [5] and 1.1 µM in assay [3].
